Publication PMC4624681 (2015)
Residue numbers refer to the chain shown, from its start.

T1: Zaire GP (1–320) with a His tag (Ebolavirus, Zaire strain, UniProt Q05320 33-320)
T1 chain: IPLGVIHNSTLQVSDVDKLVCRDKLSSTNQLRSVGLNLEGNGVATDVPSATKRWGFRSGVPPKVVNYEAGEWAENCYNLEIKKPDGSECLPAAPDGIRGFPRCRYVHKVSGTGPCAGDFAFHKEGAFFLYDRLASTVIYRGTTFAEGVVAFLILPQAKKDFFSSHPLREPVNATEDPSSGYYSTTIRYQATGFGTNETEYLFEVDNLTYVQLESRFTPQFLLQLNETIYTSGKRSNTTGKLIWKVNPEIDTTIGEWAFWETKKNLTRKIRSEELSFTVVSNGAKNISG

B1: T41 (CC’-FG) chimera: hTIM-4 Ig V with the CC’ and FG loops of hTIM-1 (domain or fragment)
chain: VTSETVVTEVLGHRVTLPCLYSSWSHNSNSMCWNRGSCSLFTCKEALIRTDGMRVTSRKSAKYRLQGTIPRGDVSLTILNPSESDSGVYCCRIEHRGWFNDVKINVRLNLQRASTT
B2: T14 (FG) chimera: hTIM-1 Ig V with the FG loop of hTIM-4 (domain or fragment)
chain: VKVGGEAGPSVTLPCHYSGAVTSMCWNRGSCSLFTCQNGIVWTNGTHVTYRKDTRYKLLGDLSRRDVSLTIENTAVSDSGVYCCRVEVPGWFNDMKITVSLEIVPPKV
B3: T41 (BC-CC’-FG) chimera: hTIM-4 Ig V with the BC, CC’ and FG loops of hTIM-1 (domain or fragment)
chain: VTSETVVTEVLGHRVTLPCLYSGAVTSMCWNRGSCSLFTCKEALIRTDGMRVTSRKSAKYRLQGTIPRGDVSLTILNPSESDSGVYCCRIEHRGWFNDVKINVRLNLQRASTT
B4: T41 (BC-CC’) chimera: hTIM-4 Ig V with the BC and CC’ loops of hTIM-1 (domain or fragment)
chain: B3 chain with H92V, R93P

Target: T1, Zaire GP (1–320) with a His tag
Test: SPR

Question: With B1 as the binder, how does the Kd read?
Answer: 208 µM

Question: With B2 as the binder, how does the Kd read?
Answer: 57.9 µM

Question: How did the Kd turn out when B3 was run?
Answer: 72.4 µM

Question: B4 was tested. Which Kd did it give?
Answer: 73.2 µM
